Key:
[1] = target: Flag-mCherry-ColKhan-Cys-6His (Photorhabdus khanii); test: EIA 8 plex n° 1: colicin coated at 100 nM, Im-RLuc8 alone at 100 nM, luciferase signal
[2] = target: Flag-mCherry-ColErw-Cys-6His (Pectobacterium carotovorum); test: EIA 8 plex n° 2: colicin coated at 100 nM, Im-RLuc8 alone at 100 nM, luciferase signal
[3] = target: Flag-mCherry-ColKhan-Cys-6His (Photorhabdus khanii); test: as above

Measured: RLU

B1: Myc-RLuc8-Im9-6His (protein)
chain: MGGEQKLISEEDLGGSASKVYDPEQRKRMITGPQWWARCKQMNVLDSFINYYDSEKHAENAVIFLHGNATSSYLWRHVVPHIEPVARCIIPDLIGMGKSGKSGNGSYRLLDHYKYLTAWFELLNLPKKIIFVGHDWGAALAFHYAYEHQDRIKAIVHMESVVDVIESWDEWPDIEEDIALIKSEEGEKMVLENNFFVETVLPSKIMRKLEPEEFAAYLEPFKEKGEVRRPTLSWPREIPLVKGGKPDVVQIVRNYNAYLRASDDLPKLFIESDPGFFSNAIVEGAKKFPNTEFVKVKGLHFLQEDAPDEMGKYIKSFVERVLKNEQKLELKHSISDYTEAEFLQLVTTICNADTSSEEELVKLVTHFEEMTEHPSGSDLIYYPKEGDDDSPSGIVNTVKQWRAANGKLEGGGSHHHHHH
> 100000 RLU: [1] | [2] | [3]
